Source: paper PMC12995615 (Frontiers in Immunology, 2026)

B1: recombinant bat antibody C05 with human signal peptide (bat C05Hsp) (antibody, V domains shown)
VH: QVQLQESGGGLVQPGESLRLSCVGSGSSFGESTLSYYAVSWVRQAPGKGLEWLSIINAGGGDIDYADSVEGRFTISRDNSKETLYLQMTNLRVEDTGVYYCAKHMSMQQVVSAGWERADLVGDAFDVWGQGTMVTVSS
VL: DIQLTQSPSSLSASVGDRVTLTCQASQDIRKFLNWYQQKPGKGPKLLIYDASNLQRGVPSRFSGGGSGTDFTLIISSLQPEDVGTYYCQQYDGLPFTFGGGTKVVIK
notes: also called bC05Hsp; ReBA
B2: recombinant bat antibody C05 with bat signal peptide (bC05Bsp) (antibody, V domains shown)
VH: B1 VH
VL: B1 VL
notes: also called ReBA

Target: Influenza H1 (A/Brisbane/59/2007) HA Clamp (Influenza A virus …, UniProt D5F1Q8, stabilised)
Assay: ELISA
Conditions: both partners purified

Binder | Kd [nM]
B1 | 0.25
B2 | 0.39
